Our source for the ratio to parent values is paper PMC7605441.

B1: wild-type murine RAD51AP1 fused to mCherry [mouse] / murine RAD51 with a C-terminal EGFP tag [mouse] (parent)
chain 1: MVRPTRNRKPINYSQFEDSGNDSDDDFISSSTPVNKSKTVPKVLKQDKPKPNLKNLQKEEVLPTEPPKKRVALDDKVFQRGLEVALALSVKELPTLTNQVKKSKEKSTDKQGKEKTENTGKPPRVSNCSVASDDVEDLDKITEEGDASSVEGERKSPSQAKAPRRRAPSEGSDGSSANDTESESATGEGSESDPDFDESKESDEDFGVRRSKESKKKTVQKKPAGEKKERKSKPKCEASVTSVDPAPAAIKSGSPSLPQAVGLPSEATRKPAIMCSPSAESKRPKWVPPAASGSRNSSSNALAGTPAKSPSQSLRLGLSRLAPVKRLHPSATSSQVR
chain 2: MAMQMQLEASADTSVEEESFGPQPISRLEQCGINANDVKKLEEAGYHTVEAVAYAPKKELINIKGISEAKADKILTEAAKLVPMGFTTATEFHQRRSEIIQITTGSKELDKLLQGGIETGSITEMFGEFRTGKTQICHTLAVTCQLPIDRGGGEGKAMYIDTEGTFRPERLLAVAERYGLSGSDVLDNVAYARGFNTDHQTQLLYQASAMMVESRYALLIVDSATALYRTDYSGRGELSARQMHLARFLRMLLRLADEFGVAVVITNQVVAQVDGAAMFAADPKKPIGGNIIAHASTTRLYLRKGRGETRICKIYDSPCLPEAEAMFAINADGVGDAKD

Variants of B1 are the subject of the first experiment. In words: co-immunoprecipitation (IP RAD51AP1, blot RAD51), band quantification. The note with it: asynchronous 293FT cells, transient co-expression, lane 5, parent: 1, read off a plot.
Turning to chain 1 MVRPTRNRKPINYSQFEDSGNDSDDDFISSSTPVNKSKTVPKVLKQDKPKPNLKNLQKEEVLPTEPPKKRVALDDKVFQRGLEVALALSVKELPTLTNQVKKSKEKSTDKQGKEKTENTGKPPRVSNCSVASDDVEDLDKITEEGDASSVEGERKSPSQAKAPRRRAPSEGSDGSSANDTESESATGEGSESDPDFDESKESDEDFGVRRSKESKKKTVQKKPAGEKKERKSKPKCEASVTSVDPAPAAIKSGSPSLPQAVGLPSEATRKPAIMCSPSAESKRPKWVPPAASGSRNSSSNALAGDPAKSPSQSLRLGLSRLAPVKRLHPSATSSQVR [chain 1 T305D], the ratio to parent amounted to 0.07.

In another experiment the parent is B1. The experiment in a line: co-immunoprecipitation (IP GFP-RAD51, blot RAD51AP1), band quantification. The note with it: asynchronous 293FT cells, transient co-expression, lane 15, parent: 1, read off a plot.
In the case of chain 1 MVRPTRNRKPINYSQFEDSGNDSDDDFISSSTPVNKSKTVPKVLKQDKPKPNLKNLQKEEVLPTEPPKKRVALDDKVFQRGLEVALALSVKELPTLTNQVKKSKEKSTDKQGKEKTENTGKPPRVSNCSVASDDVEDLDKITEEGDASSVEGERKSPSQAKAPRRRAPSEGSDGSSANDTESESATGEGSESDPDFDESKESDEDFGVRRSKESKKKTVQKKPAGEKKERKSKPKCEASVTSVDPAPAAIKSGSPSLPQAVGLPSEATRKPAIMCSPSAESKRPKWVPPAASGSRNSSSNALAGDPAKSPSQSLRLGLSRLAPVKRLHPSATSSQVR [chain 1 T305D], the ratio to parent turned out to be 0.32.

In the next experiment the parent is B1. In words: co-immunoprecipitation (IP RAD51AP1, blot RAD51), band quantification. The note with it: asynchronous 293FT cells, transient co-expression, lane 8, parent: 1, read off a plot.
For chain 1 MVRPTRNRKPINYSQFEDSGNDSDDDFISSSTPVNKSKTVPKVLKQDKPKPNLKNLQKEEVLPTEPPKKRVALDDKVFQRGLEVALALSVKELPTLTNQVKKSKEKSTDKQGKEKTENTGKPPRVSNCSVASDDVEDLDKITEEGDASSVEGERKSPSQAKAPRRRAPSEGSDGSSANDTESESATGEGSESDPDFDESKESDEDFGVRRSKESKKKTVQKKPAGEKKERKSKPKCEASVTSVDPAPAAIKSGSPSLPQAVGLPSEATRKPAIMCSPSAESKRPKWVPPAASGSRNSSSNALAGAPAKAPSQSLRLGLSRLAPVKRLHPSATSSQVR [chain 1 T305A S309A], the ratio to parent was 0.95.

In a further experiment the parent is B1. The experiment in a line: co-immunoprecipitation (IP GFP-RAD51, blot RAD51AP1), band quantification. The note with it: asynchronous 293FT cells, transient co-expression, lane 18, parent: 1, read off a plot.
Regarding chain 1 MVRPTRNRKPINYSQFEDSGNDSDDDFISSSTPVNKSKTVPKVLKQDKPKPNLKNLQKEEVLPTEPPKKRVALDDKVFQRGLEVALALSVKELPTLTNQVKKSKEKSTDKQGKEKTENTGKPPRVSNCSVASDDVEDLDKITEEGDASSVEGERKSPSQAKAPRRRAPSEGSDGSSANDTESESATGEGSESDPDFDESKESDEDFGVRRSKESKKKTVQKKPAGEKKERKSKPKCEASVTSVDPAPAAIKSGSPSLPQAVGLPSEATRKPAIMCSPSAESKRPKWVPPAASGSRNSSSNALAGAPAKAPSQSLRLGLSRLAPVKRLHPSATSSQVR [chain 1 T305A S309A], the ratio to parent was 0.45.

Variants of B1 are the subject of a further experiment. In words: co-immunoprecipitation (IP RAD51AP1, blot RAD51), band quantification. The note with it: asynchronous 293FT cells, transient co-expression, lane 9, parent: 1, read off a plot.
For the variant chain 1 MVRPTRNRKPINYSQFEDSGNDSDDDFISSSTPVNKSKTVPKVLKQDKPKPNLKNLQKEEVLPTEPPKKRVALDDKVFQRGLEVALALSVKELPTLTNQVKKSKEKSTDKQGKEKTENTGKPPRVSNCSVASDDVEDLDKITEEGDASSVEGERKSPSQAKAPRRRAPSEGSDGSSANDTESESATGEGSESDPDFDESKESDEDFGVRRSKESKKKTVQKKPAGEKKERKSKPKCEASVTSVDPAPAAIKSGSPSLPQAVGLPSEATRKPAIMCSPSAESKRPKWVPPAASGSRNSSSNALAGDPAKDPSQSLRLGLSRLAPVKRLHPSATSSQVR [chain 1 T305D S309D], the ratio to parent amounted to 0.02.

A further experiment covers variants of B1. In words: co-immunoprecipitation (IP GFP-RAD51, blot RAD51AP1), band quantification. The note with it: asynchronous 293FT cells, transient co-expression, lane 19, parent: 1, read off a plot.
Take chain 1 MVRPTRNRKPINYSQFEDSGNDSDDDFISSSTPVNKSKTVPKVLKQDKPKPNLKNLQKEEVLPTEPPKKRVALDDKVFQRGLEVALALSVKELPTLTNQVKKSKEKSTDKQGKEKTENTGKPPRVSNCSVASDDVEDLDKITEEGDASSVEGERKSPSQAKAPRRRAPSEGSDGSSANDTESESATGEGSESDPDFDESKESDEDFGVRRSKESKKKTVQKKPAGEKKERKSKPKCEASVTSVDPAPAAIKSGSPSLPQAVGLPSEATRKPAIMCSPSAESKRPKWVPPAASGSRNSSSNALAGDPAKDPSQSLRLGLSRLAPVKRLHPSATSSQVR [chain 1 T305D S309D]: the ratio to parent came out at 0.08.

The variants in a further experiment derive from B1. In words: co-immunoprecipitation (IP RAD51AP1, blot RAD51), band quantification. The note with it: asynchronous 293FT cells, transient co-expression, lane 6, parent: 1, read off a plot.
With chain 1 MVRPTRNRKPINYSQFEDSGNDSDDDFISSSTPVNKSKTVPKVLKQDKPKPNLKNLQKEEVLPTEPPKKRVALDDKVFQRGLEVALALSVKELPTLTNQVKKSKEKSTDKQGKEKTENTGKPPRVSNCSVASDDVEDLDKITEEGDASSVEGERKSPSQAKAPRRRAPSEGSDGSSANDTESESATGEGSESDPDFDESKESDEDFGVRRSKESKKKTVQKKPAGEKKERKSKPKCEASVTSVDPAPAAIKSGSPSLPQAVGLPSEATRKPAIMCSPSAESKRPKWVPPAASGSRNSSSNALAGTPAKAPSQSLRLGLSRLAPVKRLHPSATSSQVR [chain 1 S309A], the ratio to parent stood at 0.71.

Variants of B1 are the subject of a further experiment. The experiment in a line: co-immunoprecipitation (IP GFP-RAD51, blot RAD51AP1), band quantification. The note with it: asynchronous 293FT cells, transient co-expression, lane 16, parent: 1, read off a plot.
As for chain 1 MVRPTRNRKPINYSQFEDSGNDSDDDFISSSTPVNKSKTVPKVLKQDKPKPNLKNLQKEEVLPTEPPKKRVALDDKVFQRGLEVALALSVKELPTLTNQVKKSKEKSTDKQGKEKTENTGKPPRVSNCSVASDDVEDLDKITEEGDASSVEGERKSPSQAKAPRRRAPSEGSDGSSANDTESESATGEGSESDPDFDESKESDEDFGVRRSKESKKKTVQKKPAGEKKERKSKPKCEASVTSVDPAPAAIKSGSPSLPQAVGLPSEATRKPAIMCSPSAESKRPKWVPPAASGSRNSSSNALAGTPAKAPSQSLRLGLSRLAPVKRLHPSATSSQVR [chain 1 S309A], the ratio to parent stood at 0.53.

The variants in the next experiment derive from B1. The experiment in a line: co-immunoprecipitation (IP RAD51AP1, blot RAD51), band quantification. The note with it: asynchronous 293FT cells, transient co-expression, lane 7, parent: 1, read off a plot.
chain 1 MVRPTRNRKPINYSQFEDSGNDSDDDFISSSTPVNKSKTVPKVLKQDKPKPNLKNLQKEEVLPTEPPKKRVALDDKVFQRGLEVALALSVKELPTLTNQVKKSKEKSTDKQGKEKTENTGKPPRVSNCSVASDDVEDLDKITEEGDASSVEGERKSPSQAKAPRRRAPSEGSDGSSANDTESESATGEGSESDPDFDESKESDEDFGVRRSKESKKKTVQKKPAGEKKERKSKPKCEASVTSVDPAPAAIKSGSPSLPQAVGLPSEATRKPAIMCSPSAESKRPKWVPPAASGSRNSSSNALAGTPAKDPSQSLRLGLSRLAPVKRLHPSATSSQVR [chain 1 S309D]: the ratio to parent worked out at 0.18.

In another experiment the parent is B1. In words: co-immunoprecipitation (IP GFP-RAD51, blot RAD51AP1), band quantification. The note with it: asynchronous 293FT cells, transient co-expression, lane 17, parent: 1, read off a plot.
chain 1 MVRPTRNRKPINYSQFEDSGNDSDDDFISSSTPVNKSKTVPKVLKQDKPKPNLKNLQKEEVLPTEPPKKRVALDDKVFQRGLEVALALSVKELPTLTNQVKKSKEKSTDKQGKEKTENTGKPPRVSNCSVASDDVEDLDKITEEGDASSVEGERKSPSQAKAPRRRAPSEGSDGSSANDTESESATGEGSESDPDFDESKESDEDFGVRRSKESKKKTVQKKPAGEKKERKSKPKCEASVTSVDPAPAAIKSGSPSLPQAVGLPSEATRKPAIMCSPSAESKRPKWVPPAASGSRNSSSNALAGTPAKDPSQSLRLGLSRLAPVKRLHPSATSSQVR [chain 1 S309D]: the ratio to parent was determined as 0.57.
